Source: patent US20190136216

Biological target: VAMP2, native protein in rat brain detergent extracts (BDE) (UniProt P63045)
Sequence of UniProt P63045 (P63045 whole entry, looked up): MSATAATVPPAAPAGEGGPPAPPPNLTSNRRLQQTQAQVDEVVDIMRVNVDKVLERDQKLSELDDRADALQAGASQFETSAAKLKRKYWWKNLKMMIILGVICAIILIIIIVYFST

## LC of BoNT/B (B-LC), residues 1-439, His6-tagged
  cleavage of SNARE proteins in rat brain detergent extracts (immunoblot): abolishes the immunoblot signal of VAMP2
